Measured values as given in IntAct's records for PubMed 23706739.

B1: Proteasome activator complex subunit 4 (Homo sapiens), Q14997 (parent)
chain: MEPAERAGVGEPPEPGGRPEPGPRGFVPQKEIVYNKLLPYAERLDAESDLQLAQIKCNLGRAVQLQELWPGGLFWTRKLSTYIRLYGRKFSKEDHVLFIKLLYELVSIPKLEISMMQGFARLLINLLKKKELLSRADLELPWRPLYDMVERILYSKTEHLGLNWFPNSVENILKTLVKSCRPYFPADATAEMLEEWRPLMCPFDVTMQKAITYFEIFLPTSLPPELHHKGFKLWFDELIGLWVSVQNLPQWEGQLVNLFARLATDNIGYIDWDPYVPKIFTRILRSLNLPVGSSQVLVPRFLTNAYDIGHAVIWITAMMGGPSKLVQKHLAGLFNSITSFYHPSNNGRWLNKLMKLLQRLPNSVVRRLHRERYKKPSWLTPVPDSHKLTDQDVTDFVQCIIQPVLLAMFSKTGSLEAAQALQNLALMRPELVIPPVLERTYPALETLTEPHQLTATLSCVIGVARSLVSGGRWFPEGPTHMLPLLMRALPGVDPNDFSKCMITFQFIATFSTLVPLVDCSSVLQERNDLTEVERELCSATAEFEDFVLQFMDRCFGLIESSTLEQTREETETEKMTHLESLVELGLSSTFSTILTQCSKEIFMVALQKVFNFSTSHIFETRVAGRMVADMCRAAVKCCPEESLKLFVPHCCSVITQLTMNDDVLNDEELDKELLWNLQLLSEITRVDGRKLLLYREQLVKILQRTLHLTCKQGYTLSCNLLHHLLRSTTLIYPTEYCSVPGGFDKPPSEYFPIKDWGKPGDLWNLGIQWHVPSSEEVSFAFYLLDSFLQPELVKLQHCGDGKLEMSRDDILQSLTIVHNCLIGSGNLLPPLKGEPVTNLVPSMVSLEETKLYTGLEYDLSRENHREVIATVIRKLLNHILDNSEDDTKSLFLIIKIIGDLLQFQGSHKHEFDSRWKSFNLVKKSMENRLHGKKQHIRALLIDRVMLQHELRTLTVEGCEYKKIHQDMIRDLLRLSTSSYSQVRNKAQQTFFAALGAYNFCCRDIIPLVLEFLRPDRQGVTQQQFKGALYCLLGNHSGVCLANLHDWDCIVQTWPAIVSSGLSQAMSLEKPSIVRLFDDLAEKIHRQYETIGLDFTIPKSCVEIAELLQQSKNPSINQILLSPEKIKEGIKRQQEKNADALRNYENLVDTLLDGVEQRNLPWKFEHIGIGLLSLLLRDDRVLPLRAIRFFVENLNHDAIVVRKMAISAVAGILKQLKRTHKKLTINPCEISGCPKPTQIIAGDRPDNHWLHYDSKTIPRTKKEWESSCFVEKTHWGYYTWPKNMVVYAGVEEQPKLGRSREDMTEAEQIIFDHFSDPKFVEQLITFLSLEDRKGKDKFNPRRFCLFKGIFRNFDDAFLPVLKPHLEHLVADSHESTQRCVAEIIAGLIRGSKHWTFEKVEKLWELLCPLLRTALSNITVETYNDWGACIATSCESRDPRKLHWLFELLLESPLSGEGGSFVDACRLYVLQGGLAQQEWRVPELLHRLLKYLEPKLTQVYKNVRERIGSVLTYIFMIDVSLPNTTPTISPHVPEFTARILEKLKPLMDVDEEIQNHVMEENGIGEEDERTQGIKLLKTILKWLMASAGRSFSTAVTEQLQLLPLFFKIAPVENDNSYDELKRDAKLCLSLMSQGLLYPHQVPLVLQVLKQTARSSSWHARYTVLTYLQTMVFYNLFIFLNNEDAVKDIRWLVISLLEDEQLEVREMAATTLSGLLQCNFLTMDSPMQIHFEQLCKTKLPKKRKRDPGSVGDTIPSAELVKRHAGVLGLGACVLSSPYDVPTWMPQLLMNLSAHLNDPQPIEMTVKKTLSNFRRTHHDNWQEHKQQFTDDQLLVLTDLLVSPCYYA

Variants of: B1
Conditions: with h4_human H4C16, P62805
In the case of N1716T;F1717S, the “effect of a mutation on the interaction” value is reported as “disrupting interaction strength”.
